Results reported in patent US10087225B2, “Formulation of MK2 inhibitor peptides” (MOERAE MATRIX, INC., priority 2015, dated 2018).

Legend:
Experiment in all cases: Kinase Profiling Assay
Format in all cases: biochemical
Conditions in all cases: for % activity: 100 μM
EphA8(h) = target: T1, EphA8(h) (Homo sapiens, UniProt P29322)
T1 sequence (P29322 28-1005): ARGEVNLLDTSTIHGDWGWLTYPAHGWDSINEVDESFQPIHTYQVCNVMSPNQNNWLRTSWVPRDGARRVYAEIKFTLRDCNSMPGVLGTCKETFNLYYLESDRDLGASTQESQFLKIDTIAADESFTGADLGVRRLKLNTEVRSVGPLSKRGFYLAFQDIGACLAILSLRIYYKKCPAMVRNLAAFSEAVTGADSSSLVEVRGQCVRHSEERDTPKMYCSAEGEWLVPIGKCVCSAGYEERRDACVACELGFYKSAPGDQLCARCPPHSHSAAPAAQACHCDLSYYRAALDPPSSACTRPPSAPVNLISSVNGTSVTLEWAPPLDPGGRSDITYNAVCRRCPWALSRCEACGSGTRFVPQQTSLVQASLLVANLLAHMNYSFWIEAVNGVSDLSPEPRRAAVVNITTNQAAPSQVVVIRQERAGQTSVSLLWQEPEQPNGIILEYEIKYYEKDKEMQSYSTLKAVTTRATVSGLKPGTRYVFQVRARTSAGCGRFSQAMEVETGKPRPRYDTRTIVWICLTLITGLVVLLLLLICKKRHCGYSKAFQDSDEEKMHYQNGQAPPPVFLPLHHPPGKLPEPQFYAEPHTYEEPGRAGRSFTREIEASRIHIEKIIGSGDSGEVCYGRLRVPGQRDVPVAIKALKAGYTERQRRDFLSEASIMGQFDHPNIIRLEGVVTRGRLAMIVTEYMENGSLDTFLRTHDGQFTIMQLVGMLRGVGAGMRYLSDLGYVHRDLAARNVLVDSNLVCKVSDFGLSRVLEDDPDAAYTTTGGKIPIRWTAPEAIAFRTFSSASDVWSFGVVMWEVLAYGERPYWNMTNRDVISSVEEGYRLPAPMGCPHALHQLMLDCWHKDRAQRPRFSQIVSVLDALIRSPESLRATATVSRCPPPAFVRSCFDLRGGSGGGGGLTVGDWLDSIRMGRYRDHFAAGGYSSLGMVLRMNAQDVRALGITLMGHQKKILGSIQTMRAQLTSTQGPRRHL

ALK4(h) = target: T2, ALK4(h) (Homo sapiens, UniProt P36896)
T2 sequence (P36896 24-505): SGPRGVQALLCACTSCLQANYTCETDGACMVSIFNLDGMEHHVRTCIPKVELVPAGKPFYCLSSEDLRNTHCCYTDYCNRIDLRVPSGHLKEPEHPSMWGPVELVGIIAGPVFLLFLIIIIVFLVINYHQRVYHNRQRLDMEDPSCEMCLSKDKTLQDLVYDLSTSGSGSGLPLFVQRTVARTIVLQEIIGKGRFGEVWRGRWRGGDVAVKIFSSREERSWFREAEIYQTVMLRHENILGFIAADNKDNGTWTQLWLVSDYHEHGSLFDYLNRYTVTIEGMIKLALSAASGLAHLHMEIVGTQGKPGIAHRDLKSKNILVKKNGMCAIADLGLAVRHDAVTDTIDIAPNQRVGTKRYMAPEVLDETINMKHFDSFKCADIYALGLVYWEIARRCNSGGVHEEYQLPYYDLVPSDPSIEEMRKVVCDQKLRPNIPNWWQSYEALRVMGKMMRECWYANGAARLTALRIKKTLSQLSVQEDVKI

DCAMKL2(h) = target: T3, DCAMKL2(h) (Homo sapiens, UniProt Q8N568)
T3 sequence (Q8N568 1-766): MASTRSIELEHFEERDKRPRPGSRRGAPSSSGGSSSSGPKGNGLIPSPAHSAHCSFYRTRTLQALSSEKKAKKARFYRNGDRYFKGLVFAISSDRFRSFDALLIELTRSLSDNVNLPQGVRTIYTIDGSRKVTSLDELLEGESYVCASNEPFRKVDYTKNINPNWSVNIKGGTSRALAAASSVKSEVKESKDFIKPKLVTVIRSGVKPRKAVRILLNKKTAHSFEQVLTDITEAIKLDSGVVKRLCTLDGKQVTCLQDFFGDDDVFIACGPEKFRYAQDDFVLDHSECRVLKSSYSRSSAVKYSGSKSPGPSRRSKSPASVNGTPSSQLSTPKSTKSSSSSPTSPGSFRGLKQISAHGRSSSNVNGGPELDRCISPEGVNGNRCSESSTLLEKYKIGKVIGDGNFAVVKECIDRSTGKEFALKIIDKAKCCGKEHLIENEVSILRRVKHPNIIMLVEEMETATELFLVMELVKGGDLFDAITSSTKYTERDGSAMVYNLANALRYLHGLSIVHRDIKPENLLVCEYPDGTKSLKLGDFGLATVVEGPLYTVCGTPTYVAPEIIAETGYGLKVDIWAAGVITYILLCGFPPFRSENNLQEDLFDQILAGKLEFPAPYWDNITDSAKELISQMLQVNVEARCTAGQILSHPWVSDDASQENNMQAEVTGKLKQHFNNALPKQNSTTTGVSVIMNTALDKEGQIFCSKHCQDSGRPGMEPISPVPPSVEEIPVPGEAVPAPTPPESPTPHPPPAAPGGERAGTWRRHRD

IRAK4(h) = target: T4, IRAK4(h) (Homo sapiens, UniProt Q9NWZ3)
T4 sequence (Q9NWZ3 1-460): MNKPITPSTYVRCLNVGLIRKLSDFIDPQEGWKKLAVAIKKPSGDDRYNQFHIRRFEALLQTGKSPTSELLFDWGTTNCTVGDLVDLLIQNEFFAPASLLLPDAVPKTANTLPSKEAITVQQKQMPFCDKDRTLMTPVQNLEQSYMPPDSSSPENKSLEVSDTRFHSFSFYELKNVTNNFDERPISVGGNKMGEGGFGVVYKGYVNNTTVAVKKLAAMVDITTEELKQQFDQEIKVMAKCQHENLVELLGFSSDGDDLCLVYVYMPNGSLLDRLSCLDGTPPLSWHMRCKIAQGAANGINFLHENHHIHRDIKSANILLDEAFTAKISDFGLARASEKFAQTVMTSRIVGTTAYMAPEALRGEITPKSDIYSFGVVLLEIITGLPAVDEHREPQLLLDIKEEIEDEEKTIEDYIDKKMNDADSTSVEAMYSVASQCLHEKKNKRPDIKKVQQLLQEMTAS

MSSK1(h) = MSSK1(h) (Homo sapiens, UniProt Q9UPE1)
PAK2(h) = PAK2(h) (Homo sapiens, UniProt Q13177)
Sequence of PAK2(h) (Q13177 whole entry): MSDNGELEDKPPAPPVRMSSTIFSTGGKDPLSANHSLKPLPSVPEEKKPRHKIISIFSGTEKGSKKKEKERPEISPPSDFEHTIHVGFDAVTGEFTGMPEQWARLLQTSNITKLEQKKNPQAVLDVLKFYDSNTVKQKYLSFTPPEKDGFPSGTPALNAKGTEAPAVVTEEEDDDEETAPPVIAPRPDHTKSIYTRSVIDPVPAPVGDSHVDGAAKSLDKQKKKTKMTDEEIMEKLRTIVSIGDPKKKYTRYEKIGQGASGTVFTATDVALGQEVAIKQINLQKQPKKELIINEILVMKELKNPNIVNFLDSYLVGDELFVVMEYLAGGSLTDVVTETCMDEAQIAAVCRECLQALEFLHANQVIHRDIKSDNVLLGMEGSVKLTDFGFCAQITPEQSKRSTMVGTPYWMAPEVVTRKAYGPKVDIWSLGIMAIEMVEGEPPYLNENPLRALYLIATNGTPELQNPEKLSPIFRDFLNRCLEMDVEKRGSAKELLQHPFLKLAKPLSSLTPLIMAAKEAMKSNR

Sequence of MSSK1(h) (Q9UPE1 whole entry): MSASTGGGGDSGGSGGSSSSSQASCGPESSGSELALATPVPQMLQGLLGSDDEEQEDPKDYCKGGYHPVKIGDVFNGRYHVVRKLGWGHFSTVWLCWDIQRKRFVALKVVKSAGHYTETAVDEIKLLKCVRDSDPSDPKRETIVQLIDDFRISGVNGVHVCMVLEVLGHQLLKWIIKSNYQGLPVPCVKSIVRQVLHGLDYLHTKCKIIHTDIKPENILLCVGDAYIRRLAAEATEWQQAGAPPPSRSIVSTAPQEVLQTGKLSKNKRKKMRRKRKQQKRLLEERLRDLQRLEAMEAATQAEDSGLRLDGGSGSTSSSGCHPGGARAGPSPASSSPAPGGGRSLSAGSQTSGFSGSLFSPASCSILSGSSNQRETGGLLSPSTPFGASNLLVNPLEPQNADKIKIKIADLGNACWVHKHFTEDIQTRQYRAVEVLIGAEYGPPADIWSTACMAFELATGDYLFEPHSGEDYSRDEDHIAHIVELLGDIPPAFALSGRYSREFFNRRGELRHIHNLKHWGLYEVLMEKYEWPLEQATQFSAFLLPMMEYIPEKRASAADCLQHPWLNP

Substance	activity at 100 µM (EphA8(h))	activity at 100 µM (ALK4(h))	activity at 100 µM (DCAMKL2(h))	activity at 100 µM (IRAK4(h))	activity at 100 µM (MSSK1(h))	activity at 100 µM (PAK2(h))	% activity (EphA8(h))	% activity (ALK4(h))	% activity (DCAMKL2(h))	% activity (IRAK4(h))	% activity (MSSK1(h))	% activity (PAK2(h))
H-YARAAARQARAKALARQLGVAA-OH [MMI-0100]	181%	124%	146%	100%	82%	71%						
HRRIKAWLKKIKALARQLGVAA (Mammalian) [MMI-0500]							337%	81%	56%	3%	22%	44%
YARAAARQARAKALNRQLGVA (Mammalian) [MMI-0200]							133%	152%	131%	110%	100%	69%
